Source: article PMC11969024 (2025)

B1: peptide HD2 (from tick evasin EVA4) / CXCL13 (biotinylated, synthetic) (parent complex)
chain 1: EEDDYTAYAPLTCYFT
chain 2: VLEVYYTSLRCRCVQESSVFIPRRFIDRIQILPRGNGCPRKEIIVWKKNKSIVCVDPQAEWIQRMMEVLRKRSSSTLPVPVFKRKIP

Variants of: B1

Variant | enrichment
chain 1 EEDDYTAYAPLTTYFT [chain 1 C13T] | -5.19 log2 (difference from the parental peptide)
chain 1 EEDDYTAYAPLTNYFT [chain 1 C13N] | -4.98 log2 (difference from the parental peptide)
chain 1 EEDDYTAYAPLTYYFT [chain 1 C13Y] | -6.52 log2 (difference from the parental peptide)
chain 1 EEDDYTAYAPLTQYFT [chain 1 C13Q] | -8.15 log2 (difference from the parental peptide)
chain 1 EEDDYTAYAPLTSYFT [chain 1 C13S] | -4.26 log2 (difference from the parental peptide)
chain 1 EEDDYTAYAPLTPYFT [chain 1 C13P] | -7.37 log2 (difference from the parental peptide)
chain 1 EEDDYTAYAPLTAYFT [chain 1 C13A] | -7.08 log2 (difference from the parental peptide)
chain 1 EESDYTAYAPLTCYFT [chain 1 D3S] | -3.94 log2 (difference from the parental peptide)
chain 1 EEEDYTAYAPLTCYFT [chain 1 D3E] | 0.606 log2 (difference from the parental peptide)
chain 1 EEPDYTAYAPLTCYFT [chain 1 D3P] | -5.29 log2 (difference from the parental peptide)
chain 1 EEFDYTAYAPLTCYFT [chain 1 D3F] | -4.35 log2 (difference from the parental peptide)
chain 1 EEIDYTAYAPLTCYFT [chain 1 D3I] | -5.63 log2 (difference from the parental peptide)
chain 1 EENDYTAYAPLTCYFT [chain 1 D3N] | -4.32 log2 (difference from the parental peptide)
chain 1 EDDDYTAYAPLTCYFT [chain 1 E2D] | 1.8 log2 (difference from the parental peptide)
chain 1 EHDDYTAYAPLTCYFT [chain 1 E2H] | -3.83 log2 (difference from the parental peptide)
chain 1 EMDDYTAYAPLTCYFT [chain 1 E2M] | -1.37 log2 (difference from the parental peptide)
chain 1 EVDDYTAYAPLTCYFT [chain 1 E2V] | -1.21 log2 (difference from the parental peptide)
chain 1 EQDDYTAYAPLTCYFT [chain 1 E2Q] | -2.09 log2 (difference from the parental peptide)
chain 1 EEDDYTAYAPCTCYFT [chain 1 L11C] | -5.19 log2 (difference from the parental peptide)
chain 1 EEDDYTAYAPMTCYFT [chain 1 L11M] | 3.77 log2 (difference from the parental peptide)
chain 1 EEDDYTAYAPNTCYFT [chain 1 L11N] | -7.22 log2 (difference from the parental peptide)
chain 1 EEDDYTAYAPHTCYFT [chain 1 L11H] | -5.03 log2 (difference from the parental peptide)
chain 1 EEDDYTAYAPSTCYFT [chain 1 L11S] | -8.97 log2 (difference from the parental peptide)

Variant | enrichment
chain 1 EEDDQTAYAPLTCYFT [chain 1 Y5Q] | -3.13 log2 (difference from the parental peptide)
chain 1 EEDDSTAYAPLTCYFT [chain 1 Y5S] | -3.07 log2 (difference from the parental peptide)
chain 1 EEDDLTAYAPLTCYFT [chain 1 Y5L] | -1.23 log2 (difference from the parental peptide)
chain 1 EEDDFTAYAPLTCYFT [chain 1 Y5F] | -0.242 log2 (difference from the parental peptide)
chain 1 EEDDETAYAPLTCYFT [chain 1 Y5E] | -0.259 log2 (difference from the parental peptide)
chain 1 EEDDNTAYAPLTCYFT [chain 1 Y5N] | -2.57 log2 (difference from the parental peptide)
chain 1 REDDYTAYAPLTCYFT [chain 1 E1R] | -5.75 log2 (difference from the parental peptide)
chain 1 WEDDYTAYAPLTCYFT [chain 1 E1W] | -0.426 log2 (difference from the parental peptide)
chain 1 IEDDYTAYAPLTCYFT [chain 1 E1I] | -1.63 log2 (difference from the parental peptide)
chain 1 VEDDYTAYAPLTCYFT [chain 1 E1V] | -2.3 log2 (difference from the parental peptide)
chain 1 YEDDYTAYAPLTCYFT [chain 1 E1Y] | 0.38 log2 (difference from the parental peptide)
chain 1 NEDDYTAYAPLTCYFT [chain 1 E1N] | -1.5 log2 (difference from the parental peptide)
chain 1 FEDDYTAYAPLTCYFT [chain 1 E1F] | -1.39 log2 (difference from the parental peptide)
chain 1 GEDDYTAYAPLTCYFT [chain 1 E1G] | -1.69 log2 (difference from the parental peptide)
chain 1 MEDDYTAYAPLTCYFT [chain 1 E1M] | -0.674 log2 (difference from the parental peptide)
chain 1 LEDDYTAYAPLTCYFT [chain 1 E1L] | -1.96 log2 (difference from the parental peptide)
chain 1 EEDDYTAYAGLTCYFT [chain 1 P10G] | 1.04 log2 (difference from the parental peptide)
chain 1 EEDDYTAYAMLTCYFT [chain 1 P10M] | -7.27 log2 (difference from the parental peptide)
chain 1 EEDDYTAYASLTCYFT [chain 1 P10S] | -4.38 log2 (difference from the parental peptide)
chain 1 EEDDYTAYAPLTCYVT [chain 1 F15V] | -2.57 log2 (difference from the parental peptide)
chain 1 EEDDYTAYAPLTCYRT [chain 1 F15R] | -6.31 log2 (difference from the parental peptide)
chain 1 EEDDYTAYAPLTCYAT [chain 1 F15A] | -4.66 log2 (difference from the parental peptide)
chain 1 EEDDYTAYAPLTCYTT [chain 1 F15T] | -5.1 log2 (difference from the parental peptide)

Variant | enrichment
chain 1 EEDDYTAYAPLTCYIT [chain 1 F15I] | -5.03 log2 (difference from the parental peptide)
chain 1 EEDDYTAYAPLTCYLT [chain 1 F15L] | -2.76 log2 (difference from the parental peptide)
chain 1 EEDDYTAYAPLTCYWT [chain 1 F15W] | -3.2 log2 (difference from the parental peptide)
chain 1 EEDDYTAYAPLTCYPT [chain 1 F15P] | -3.33 log2 (difference from the parental peptide)
chain 1 EEDDYTAYAPLTCYMT [chain 1 F15M] | -4.67 log2 (difference from the parental peptide)
chain 1 EEDDYTAYAPLTCYET [chain 1 F15E] | -7.7 log2 (difference from the parental peptide)
chain 1 EEDDYTAYAPLTCYCT [chain 1 F15C] | -7.62 log2 (difference from the parental peptide)
chain 1 EEDDYTAYAPLTCYGT [chain 1 F15G] | -9.13 log2 (difference from the parental peptide)
chain 1 EEDDYTADAPLTCYFT [chain 1 Y8D] | 0.221 log2 (difference from the parental peptide)
chain 1 EEDDYTALAPLTCYFT [chain 1 Y8L] | -2.2 log2 (difference from the parental peptide)
chain 1 EEDDYTATAPLTCYFT [chain 1 Y8T] | -4.45 log2 (difference from the parental peptide)
chain 1 EEDDYTANAPLTCYFT [chain 1 Y8N] | -3.32 log2 (difference from the parental peptide)
chain 1 EEDDYTAMAPLTCYFT [chain 1 Y8M] | -1.68 log2 (difference from the parental peptide)
chain 1 EEDDYTAQAPLTCYFT [chain 1 Y8Q] | -5.13 log2 (difference from the parental peptide)
chain 1 EEDDYTAYAPLTCYFK [chain 1 T16K] | -6.05 log2 (difference from the parental peptide)
chain 1 EEDDYTAYAPLTCYFN [chain 1 T16N] | -0.837 log2 (difference from the parental peptide)
chain 1 EEDDYTAYAPLTCYFV [chain 1 T16V] | -0.466 log2 (difference from the parental peptide)
chain 1 EEDDYTAYAPLTCYFM [chain 1 T16M] | 0.915 log2 (difference from the parental peptide)
chain 1 EEDDYTAYAPLTCYFI [chain 1 T16I] | -0.117 log2 (difference from the parental peptide)
chain 1 EEDDYTAYAPLTCYFH [chain 1 T16H] | 0.0142 log2 (difference from the parental peptide)
chain 1 EEDDYTAYAPLTCYFQ [chain 1 T16Q] | -1.21 log2 (difference from the parental peptide)
chain 1 EEDDYTAYAPLTCYFW [chain 1 T16W] | -0.0649 log2 (difference from the parental peptide)
chain 1 EEDDYTAYAPLTCYFE [chain 1 T16E] | 1.77 log2 (difference from the parental peptide)

Variant | enrichment
chain 1 EEDDYTAYAPLTCYFL [chain 1 T16L] | -0.207 log2 (difference from the parental peptide)
chain 1 EEDSYTAYAPLTCYFT [chain 1 D4S] | -5.37 log2 (difference from the parental peptide)
chain 1 EEDQYTAYAPLTCYFT [chain 1 D4Q] | -2.67 log2 (difference from the parental peptide)
chain 1 EEDPYTAYAPLTCYFT [chain 1 D4P] | -1.45 log2 (difference from the parental peptide)
chain 1 EEDAYTAYAPLTCYFT [chain 1 D4A] | -6.85 log2 (difference from the parental peptide)
chain 1 EEDLYTAYAPLTCYFT [chain 1 D4L] | -4.8 log2 (difference from the parental peptide)
chain 1 EEDEYTAYAPLTCYFT [chain 1 D4E] | -0.811 log2 (difference from the parental peptide)
chain 1 EEDMYTAYAPLTCYFT [chain 1 D4M] | -5.4 log2 (difference from the parental peptide)
chain 1 EEDIYTAYAPLTCYFT [chain 1 D4I] | -4.76 log2 (difference from the parental peptide)
chain 1 EEDDYEAYAPLTCYFT [chain 1 T6E] | 4.71 log2 (difference from the parental peptide)
chain 1 EEDDYVAYAPLTCYFT [chain 1 T6V] | -2.98 log2 (difference from the parental peptide)
chain 1 EEDDYQAYAPLTCYFT [chain 1 T6Q] | 1.51 log2 (difference from the parental peptide)
chain 1 EEDDYNAYAPLTCYFT [chain 1 T6N] | 2.54 log2 (difference from the parental peptide)
chain 1 EEDDYAAYAPLTCYFT [chain 1 T6A] | 1.86 log2 (difference from the parental peptide)
chain 1 EEDDYGAYAPLTCYFT [chain 1 T6G] | 4.13 log2 (difference from the parental peptide)
chain 1 EEDDYHAYAPLTCYFT [chain 1 T6H] | 0.439 log2 (difference from the parental peptide)
chain 1 EEDDYRAYAPLTCYFT [chain 1 T6R] | -1.88 log2 (difference from the parental peptide)
chain 1 EEDDYIAYAPLTCYFT [chain 1 T6I] | -3.55 log2 (difference from the parental peptide)
chain 1 EEDDYWAYAPLTCYFT [chain 1 T6W] | 5.97 log2 (difference from the parental peptide)
chain 1 EEDDYDAYAPLTCYFT [chain 1 T6D] | 5.14 log2 (difference from the parental peptide)
chain 1 EEDDYCAYAPLTCYFT [chain 1 T6C] | -9.9 log2 (difference from the parental peptide)
chain 1 EEDDYPAYAPLTCYFT [chain 1 T6P] | -0.391 log2 (difference from the parental peptide)
chain 1 EEDDYTAYWPLTCYFT [chain 1 A9W] | 1.81 log2 (difference from the parental peptide)

Variant | enrichment
chain 1 EEDDYTAYGPLTCYFT [chain 1 A9G] | 0.486 log2 (difference from the parental peptide)
chain 1 EEDDYTAYSPLTCYFT [chain 1 A9S] | -1.23 log2 (difference from the parental peptide)
chain 1 EEDDYTAYRPLTCYFT [chain 1 A9R] | -4.49 log2 (difference from the parental peptide)
chain 1 EEDDYTAYMPLTCYFT [chain 1 A9M] | -0.268 log2 (difference from the parental peptide)
chain 1 EEDDYTAYIPLTCYFT [chain 1 A9I] | -5.77 log2 (difference from the parental peptide)
chain 1 EEDDYTAYAPLHCYFT [chain 1 T12H] | -5.34 log2 (difference from the parental peptide)
chain 1 EEDDYTAYAPLACYFT [chain 1 T12A] | -5.98 log2 (difference from the parental peptide)
chain 1 EEDDYTAYAPLQCYFT [chain 1 T12Q] | -3.59 log2 (difference from the parental peptide)
chain 1 EEDDYTAYAPLNCYFT [chain 1 T12N] | -4.95 log2 (difference from the parental peptide)
chain 1 EEDDYTAYAPLLCYFT [chain 1 T12L] | -1.72 log2 (difference from the parental peptide)
chain 1 EEDDYTAYAPLTCCFT [chain 1 Y14C] | -6.09 log2 (difference from the parental peptide)
chain 1 EEDDYTRYAPLTCYFT [chain 1 A7R] | -1.49 log2 (difference from the parental peptide)
chain 1 EEDDYTDYAPLTCYFT [chain 1 A7D] | 5.88 log2 (difference from the parental peptide)
chain 1 EEDDYTHYAPLTCYFT [chain 1 A7H] | 0.018 log2 (difference from the parental peptide)
chain 1 EEDDYTSYAPLTCYFT [chain 1 A7S] | 2.57 log2 (difference from the parental peptide)
chain 1 EEDDYTQYAPLTCYFT [chain 1 A7Q] | 3.15 log2 (difference from the parental peptide)
chain 1 EEDDYTNYAPLTCYFT [chain 1 A7N] | 2.99 log2 (difference from the parental peptide)
chain 1 EEDDYTLYAPLTCYFT [chain 1 A7L] | 1.64 log2 (difference from the parental peptide)
chain 1 EEDDYTEYAPLTCYFT [chain 1 A7E] | 5.25 log2 (difference from the parental peptide)
chain 1 EEDDYTYYAPLTCYFT [chain 1 A7Y] | 3.99 log2 (difference from the parental peptide)
